Target: Fas receptor on cultured mouse thyroid follicular cells (mouse) (UniProt P25446)
Experiment: cell-based or functional assay

Sequence of UniProt P25446 (P25446 22-327): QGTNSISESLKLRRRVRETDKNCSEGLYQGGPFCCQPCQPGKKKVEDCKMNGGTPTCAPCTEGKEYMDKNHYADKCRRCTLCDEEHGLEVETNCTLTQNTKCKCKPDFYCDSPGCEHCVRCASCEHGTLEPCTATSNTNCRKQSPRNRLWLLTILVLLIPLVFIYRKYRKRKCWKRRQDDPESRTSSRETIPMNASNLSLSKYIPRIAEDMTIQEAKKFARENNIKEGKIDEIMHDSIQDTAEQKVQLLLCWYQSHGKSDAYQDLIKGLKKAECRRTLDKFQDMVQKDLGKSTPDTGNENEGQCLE

percentage of proliferation increase of anti-Fas versus control cultures ([3H] thymidine), 48 h: 37%
percentage of proliferation increase of anti-Fas versus control cultures ([3H] thymidine), 72 h: 49%
percentage of proliferation increase of anti-Fas versus control cultures ([3H] thymidine), 96 h: 61%
Substance: clone Jo2 anti-Fas antibody (Pharmingen)
